According to PMC11331505, “Binding Behavior of Human Hepatoma-Derived Growth Factor on SMYD1”:

Experiments:
D. ficus RecA (D. ficus) = assay: PIFE (Cy3 fluorescence enhancement); details: 1 nM DNA; HDGF assays: 46 mM NaCl, 0.9 mM KCl, 3.3 mM Na2HPO4, 0.66 mM KH2PO4, pH 7.4; at least 1 h on ice; 1-10 nM Cy3 DNA, 10 pM-100 nM protein; RecA dsDNA control at …
HDGF [1] = target: T1, HDGF (human, UniProt P51858 1-240); assay: PIFQ (Cy3 fluorescence quenching); 10 nM DNA; Hill fit (approximation model 0.031 nM); HDGF assays: 46 mM NaCl, 0.9 mM KCl, 3.3 mM Na2HPO4, 0.66 mM KH2PO4, pH 7.4; at least 1 h on ice; 1-10 nM Cy3 DNA, 10 pM-100 nM protein; RecA dsDNA control at pH 7.5; details: protein: recombinant; label: 5' Cy3
T1 sequence (P51858 whole entry): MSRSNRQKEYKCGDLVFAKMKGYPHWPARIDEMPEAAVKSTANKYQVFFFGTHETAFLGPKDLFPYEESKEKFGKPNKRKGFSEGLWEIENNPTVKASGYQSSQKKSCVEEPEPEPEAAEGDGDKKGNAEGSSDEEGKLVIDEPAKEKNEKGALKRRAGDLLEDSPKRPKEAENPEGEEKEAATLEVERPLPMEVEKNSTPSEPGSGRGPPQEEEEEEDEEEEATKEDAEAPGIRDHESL

HDGF S103A [2] = target: T2, HDGF S103A (human, UniProt P51858 1-240, S103A); assay: PIFQ (Cy3 fluorescence quenching); 1 nM DNA; Hill n=0.67; HDGF assays: 46 mM NaCl, 0.9 mM KCl, 3.3 mM Na2HPO4, 0.66 mM KH2PO4, pH 7.4; at least 1 h on ice; 1-10 nM Cy3 DNA, 10 pM-100 nM protein; RecA dsDNA control at pH 7.5; details: protein: recombinant; label: 5' Cy3
T2 sequence (P51858 whole entry S103A): as the sequence (P51858 whole entry) above, with S103A counted along it

HDGF [3] = target: T1, HDGF; assay: PIFQ (Cy3 fluorescence quenching); 5 nM DNA; Hill fit (approximation model 0.019 nM); HDGF assays: 46 mM NaCl, 0.9 mM KCl, 3.3 mM Na2HPO4, 0.66 mM KH2PO4, pH 7.4; at least 1 h on ice; 1-10 nM Cy3 DNA, 10 pM-100 nM protein; RecA dsDNA control at pH 7.5; details: protein: recombinant; label: 5' Cy3
HDGF PWWP domain [4] = target: T3, HDGF PWWP domain (human, UniProt P51858 1-100); assay: PIFQ (Cy3 fluorescence quenching); 10 nM DNA; approximation model; less reliable (protein depletion); HDGF assays: 46 mM NaCl, 0.9 mM KCl, 3.3 mM Na2HPO4, 0.66 mM KH2PO4, pH 7.4; at least 1 h on ice; 1-10 nM Cy3 DNA, 10 pM-100 nM protein; RecA dsDNA control at pH 7.5; details: protein: recombinant; label: 5' Cy3
T3 sequence (P51858 1-100): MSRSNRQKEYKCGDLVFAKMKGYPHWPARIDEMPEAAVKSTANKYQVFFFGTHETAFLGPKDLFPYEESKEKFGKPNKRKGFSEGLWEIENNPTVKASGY

[5] = target: T4, HDGF PWWP domain;HDGF C140 domain (human;human, UniProt P51858;P51858 1-100;101-240, |); assay: PIFQ (Cy3 fluorescence quenching); 1 nM DNA; equal amounts premixed; Hill n=0.63; HDGF assays: 46 mM NaCl, 0.9 mM KCl, 3.3 mM Na2HPO4, 0.66 mM KH2PO4, pH 7.4; at least 1 h on ice; 1-10 nM Cy3 DNA, 10 pM-100 nM protein; RecA dsDNA control at pH 7.5; details: protein: recombinant;recombinant; copies: 1;1; label: 5' Cy3
T4 sequence (P51858 1-100, chain 1 of 2): as the sequence (P51858 1-100) above
T4 sequence (P51858 101-240, chain 2 of 2): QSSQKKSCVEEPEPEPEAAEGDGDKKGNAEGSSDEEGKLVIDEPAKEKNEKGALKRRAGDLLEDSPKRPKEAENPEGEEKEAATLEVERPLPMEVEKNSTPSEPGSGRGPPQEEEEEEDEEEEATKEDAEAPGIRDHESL

HDGF PWWP domain [6] = target: T3, HDGF PWWP domain; assay: PIFQ (Cy3 fluorescence quenching); 1 nM DNA; n=1.00; HDGF assays: 46 mM NaCl, 0.9 mM KCl, 3.3 mM Na2HPO4, 0.66 mM KH2PO4, pH 7.4; at least 1 h on ice; 1-10 nM Cy3 DNA, 10 pM-100 nM protein; RecA dsDNA control at pH 7.5; details: protein: recombinant; label: 5' Cy3
HDGF [7] = target: T1, HDGF; assay: PIFQ (Cy3 fluorescence quenching); 1 nM DNA; Hill fit (approximation model 0.017 nM); HDGF assays: 46 mM NaCl, 0.9 mM KCl, 3.3 mM Na2HPO4, 0.66 mM KH2PO4, pH 7.4; at least 1 h on ice; 1-10 nM Cy3 DNA, 10 pM-100 nM protein; RecA dsDNA control at pH 7.5; details: protein: recombinant; label: 5' Cy3
HDGF PWWP domain [8] = target: T3, HDGF PWWP domain; assay: PIFQ (Cy3 fluorescence quenching); 5 nM DNA; approximation model; HDGF assays: 46 mM NaCl, 0.9 mM KCl, 3.3 mM Na2HPO4, 0.66 mM KH2PO4, pH 7.4; at least 1 h on ice; 1-10 nM Cy3 DNA, 10 pM-100 nM protein; RecA dsDNA control at pH 7.5; details: protein: recombinant; label: 5' Cy3
HDGF C140 domain [9] = target: T5, HDGF C140 domain (human, UniProt P51858 101-240); assay: PIFQ (Cy3 fluorescence quenching); 1 nM DNA; up to 100 nM protein; HDGF assays: 46 mM NaCl, 0.9 mM KCl, 3.3 mM Na2HPO4, 0.66 mM KH2PO4, pH 7.4; at least 1 h on ice; 1-10 nM Cy3 DNA, 10 pM-100 nM protein; RecA dsDNA control at pH 7.5; details: protein: recombinant; label: 5' Cy3
T5 sequence (P51858 101-240): as the sequence (P51858 101-240, chain 2 of 2) above

HDGF PWWP domain [10] = target: T3, HDGF PWWP domain; assay: PIFQ (Cy3 fluorescence quenching); 1 nM DNA; Hill fit; HDGF assays: 46 mM NaCl, 0.9 mM KCl, 3.3 mM Na2HPO4, 0.66 mM KH2PO4, pH 7.4; at least 1 h on ice; 1-10 nM Cy3 DNA, 10 pM-100 nM protein; RecA dsDNA control at pH 7.5; details: protein: recombinant; label: 5' Cy3
HDGF [11] = target: T1, HDGF; assay: PIFQ (Cy3 fluorescence quenching); 1 nM DNA; HDGF assays: 46 mM NaCl, 0.9 mM KCl, 3.3 mM Na2HPO4, 0.66 mM KH2PO4, pH 7.4; at least 1 h on ice; 1-10 nM Cy3 DNA, 10 pM-100 nM protein; RecA dsDNA control at pH 7.5; details: protein: recombinant; label: 5' Cy3
HDGF S103A [12] = target: T2, HDGF S103A; assay: as above; details: protein: recombinant; label: 5' Cy3
HDGF C140 domain [13] = target: T5, HDGF C140 domain; assay: as above; details: protein: recombinant
[14] = target: T4, HDGF PWWP domain;HDGF C140 domain; assay: PIFQ (Cy3 fluorescence quenching); 1 nM DNA; equal amounts premixed; Hill n=0.50; HDGF assays: 46 mM NaCl, 0.9 mM KCl, 3.3 mM Na2HPO4, 0.66 mM KH2PO4, pH 7.4; at least 1 h on ice; 1-10 nM Cy3 DNA, 10 pM-100 nM protein; RecA dsDNA control at pH 7.5; details: protein: recombinant;recombinant; copies: 1;1; label: Cy3
HDGF PWWP domain [15] = target: T3, HDGF PWWP domain; assay: PIFQ (Cy3 fluorescence quenching); 1 nM DNA; Hill n=1.00; HDGF assays: 46 mM NaCl, 0.9 mM KCl, 3.3 mM Na2HPO4, 0.66 mM KH2PO4, pH 7.4; at least 1 h on ice; 1-10 nM Cy3 DNA, 10 pM-100 nM protein; RecA dsDNA control at pH 7.5; details: protein: recombinant; label: Cy3
HDGF [16] = target: T1, HDGF; assay: PIFQ (Cy3 fluorescence quenching); 1 nM DNA; Hill n=0.55; HDGF assays: 46 mM NaCl, 0.9 mM KCl, 3.3 mM Na2HPO4, 0.66 mM KH2PO4, pH 7.4; at least 1 h on ice; 1-10 nM Cy3 DNA, 10 pM-100 nM protein; RecA dsDNA control at pH 7.5; details: protein: recombinant; label: Cy3
HDGF S103A [17] = target: T2, HDGF S103A; assay: PIFQ (Cy3 fluorescence quenching); 1 nM DNA; Hill n=0.50; HDGF assays: 46 mM NaCl, 0.9 mM KCl, 3.3 mM Na2HPO4, 0.66 mM KH2PO4, pH 7.4; at least 1 h on ice; 1-10 nM Cy3 DNA, 10 pM-100 nM protein; RecA dsDNA control at pH 7.5; details: protein: recombinant; label: Cy3
E. coli RecA = E. coli RecA (E. coli, UniProt P0A7G6 2-353); assay: PIFE (Cy3 fluorescence enhancement); 1 nM DNA; approximation model; HDGF assays: 46 mM NaCl, 0.9 mM KCl, 3.3 mM Na2HPO4, 0.66 mM KH2PO4, pH 7.4; at least 1 h on ice; 1-10 nM Cy3 DNA, 10 pM-100 nM protein; RecA dsDNA control at pH 7.5; details: label: Cy3
Sequence of E. coli RecA (P0A7G6 2-353): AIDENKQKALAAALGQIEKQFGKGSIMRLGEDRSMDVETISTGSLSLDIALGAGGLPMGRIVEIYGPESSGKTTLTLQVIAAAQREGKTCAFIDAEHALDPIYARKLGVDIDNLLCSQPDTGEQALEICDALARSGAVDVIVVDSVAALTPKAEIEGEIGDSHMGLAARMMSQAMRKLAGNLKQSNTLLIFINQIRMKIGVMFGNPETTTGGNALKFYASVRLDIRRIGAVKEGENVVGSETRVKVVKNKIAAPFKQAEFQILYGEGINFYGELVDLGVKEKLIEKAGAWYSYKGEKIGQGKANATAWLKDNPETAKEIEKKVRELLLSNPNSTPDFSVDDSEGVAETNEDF

HDGF [18] = target: T1, HDGF; assay: PIFQ (Cy3 fluorescence quenching); 1 nM DNA; Hill n=0.60; unit not printed in legend; HDGF assays: 46 mM NaCl, 0.9 mM KCl, 3.3 mM Na2HPO4, 0.66 mM KH2PO4, pH 7.4; at least 1 h on ice; 1-10 nM Cy3 DNA, 10 pM-100 nM protein; RecA dsDNA control at pH 7.5; details: protein: recombinant; label: 3' Cy3
HDGF PWWP domain [19] = target: T3, HDGF PWWP domain; assay: PIFQ (Cy3 fluorescence quenching); 1 nM DNA; Hill n=1.0; unit not printed in legend; HDGF assays: 46 mM NaCl, 0.9 mM KCl, 3.3 mM Na2HPO4, 0.66 mM KH2PO4, pH 7.4; at least 1 h on ice; 1-10 nM Cy3 DNA, 10 pM-100 nM protein; RecA dsDNA control at pH 7.5; details: protein: recombinant; label: 3' Cy3

Molecule: TTTTTTTTTTTTTTTTTTTTTTTTTTTTTTTTTTTTTTTT [poly(dT)40 ssDNA]
- Kd (D. ficus RecA (D. ficus)): 13.6 nM

Molecule: TTTTTTTTTTTTTTTTTTTTTTTTTTTTTTTTTTTTTTTT (double strand) [poly(T-A)40 dsDNA]
- Kd (D. ficus RecA (D. ficus)): 19 nM

B1: 15 bp SMYD1 dsDNA (5' Cy3) (dsDNA)
DNA 1: TTCAAGACCAGCCTG
DNA 2: CAGGCTGGTCTTGAA
- Kd (HDGF [1]): 0.076 ± 0.02 nM
- Kd (HDGF S103A [2]): 0.072 ± 0.003 nM
- Kd (HDGF [3]): 0.085 ± 0.024 nM
- Kd (HDGF PWWP domain [4]): 1.6 ± 0.2 nM
- Kd [5]: 0.12 ± 0.04 nM
- Kd (HDGF PWWP domain [6]): 0.94 ± 0.1 nM
- Kd (HDGF [7]): 0.095 ± 0.016 nM
- Kd (HDGF PWWP domain [8]): ~1 nM
- binding result (HDGF C140 domain [9]): no binding

B2: poly(T-A)15 dsDNA (dsDNA)
DNA 1: TTTTTTTTTTTTTTT
DNA 2: AAAAAAAAAAAAAAA
- Kd (HDGF PWWP domain [10]): 1.6 ± 0.2 nM
- binding result (HDGF [11]): no binding
- binding result (HDGF S103A [12]): no binding
- binding result (HDGF C140 domain [13]; label: 5' Cy3): no binding

B3: GC-rich dsDNA (dsDNA)
DNA 1: TCCTCGCTGCCGTCGGCCA
DNA 2: TGGCCGACGGCAGCGAGGA
- binding result (HDGF C140 domain [13]; label: Cy3): no binding
- Kd [14]: 0.45 ± 0.06 nM
- Kd (HDGF PWWP domain [15]): 0.97 ± 0.19 nM
- Kd (HDGF [16]): 0.25 ± 0.03 nM
- Kd (HDGF S103A [17]): 0.34 ± 0.06 nM

B4: poly(dT)40 ssDNA (ssDNA)
DNA: TTTTTTTTTTTTTTTTTTTTTTTTTTTTTTTTTTTTTTTT
- Kd (E. coli RecA): 34.5 ± 6.8 nM

B5: 15 bp SMYD1 dsDNA (3' Cy3) (dsDNA)
DNA 1: TTCAAGACCAGCCTG
DNA 2: CAGGCTGGTCTTGAA
- Kd (HDGF [18]): 0.08 ± 0.004 nM
- Kd (HDGF PWWP domain [19]): 1.4 ± 0.2 nM
